Results on six variants are retold here after IntAct's records for PubMed 31515488.

The chains are these.
B1: Zinc finger protein 488 (Homo sapiens), Q96MN9 (parent)
chain: MPEWPPCLSVAPALVITMAAGKGAPLSPSAENRWRLSEPELGRGCKPVLLEKTNRLGPEAAVGRAGRDVGSAELALLVAPGKPRPGKPLPPKTRGEQRQSAFTELPRMKDRQVDAQAQEREHDDPTGQPGAPQLTQNIPRGPAGSKVFSVWPSGARSEQRSAFSKPTKRPAERPELTSVFPAGESADALGELSGLLNTTDLACWGRLSTPKLLVGDLWNLQALPQNAPLCSTFLGAPTLWLEHTQAQVPPPSSSSTTSWALLPPTLTSLGLSTQNWCAKCNLSFRLTSDLVFHMRSHHKKEHAGPDPHSQKRREEALACPVCQEHFRERHHLSRHMTSHS
partner: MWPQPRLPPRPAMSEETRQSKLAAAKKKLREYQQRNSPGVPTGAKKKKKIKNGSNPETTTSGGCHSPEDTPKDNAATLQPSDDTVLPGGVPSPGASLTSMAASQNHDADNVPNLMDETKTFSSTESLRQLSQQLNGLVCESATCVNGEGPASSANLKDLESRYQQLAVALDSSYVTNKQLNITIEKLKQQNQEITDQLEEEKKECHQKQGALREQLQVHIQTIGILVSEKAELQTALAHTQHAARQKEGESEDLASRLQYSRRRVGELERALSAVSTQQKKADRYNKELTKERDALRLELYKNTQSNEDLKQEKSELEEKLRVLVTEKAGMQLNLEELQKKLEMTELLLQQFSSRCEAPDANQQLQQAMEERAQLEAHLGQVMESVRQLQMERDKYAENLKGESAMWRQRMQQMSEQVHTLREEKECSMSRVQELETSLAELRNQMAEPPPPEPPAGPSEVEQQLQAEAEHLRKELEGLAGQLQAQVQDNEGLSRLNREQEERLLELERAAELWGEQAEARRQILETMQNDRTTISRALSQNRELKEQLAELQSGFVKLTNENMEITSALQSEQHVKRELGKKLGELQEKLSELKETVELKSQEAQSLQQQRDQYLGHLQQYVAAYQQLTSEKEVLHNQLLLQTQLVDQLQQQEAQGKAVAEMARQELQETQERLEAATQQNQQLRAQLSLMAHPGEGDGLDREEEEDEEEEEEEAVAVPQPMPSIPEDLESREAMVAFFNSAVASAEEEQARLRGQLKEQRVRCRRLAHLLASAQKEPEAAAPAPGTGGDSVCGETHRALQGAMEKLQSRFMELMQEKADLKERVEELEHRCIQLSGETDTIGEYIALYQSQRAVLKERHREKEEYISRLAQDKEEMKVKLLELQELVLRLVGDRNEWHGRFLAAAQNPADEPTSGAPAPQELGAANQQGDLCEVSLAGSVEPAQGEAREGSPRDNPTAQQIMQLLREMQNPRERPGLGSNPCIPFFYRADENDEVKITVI
B2: Neutrophil cytosol factor 2 (Homo sapiens), P19878 (parent)
chain: MSLVEAISLWNEGVLAADKKDWKGALDAFSAVQDPHSRICFNIGCMYTILKNMTEAEKAFTRSINRDKHLAVAYFQRGMLYYQTEKYDLAIKDLKEALIQLRGNQLIDYKILGLQFKLFACEVLYNIAFMYAKKEEWKKAEEQLALATSMKSEPRHSKIDKAMECVWKQKLYEPVVIPVGKLFRPNERQVAQLAKKDYLGKATVVASVVDQDSFSGFAPLQPQAAEPPPRPKTPEIFRALEGEAHRVLFGFVPETKEELQVMPGNIVFVLKKGNDNWATVMFNGQKGLVPCNYLEPVELRIHPQQQPQEESSPQSDIPAPPSSKAPGRPQLSPGQKQKEEPKEVKLSVPMPYTLKVHYKYTVVMKTQPGLPYSQVRDMVSKKLELRLEHTKLSYRPRDSNELVPLSEDSMKDAWGQVKNYCLTLWCENTVGDQGFPDEPKESEKADANNQTTEPQLKKGSQVEALFSYEATQPEDLEFQEGDIILVLSKVNEEWLEGECKGKVGIFPKVFVEDCATTDLESTRREV
B3: Mothers against decapentaplegic homolog 4 (Homo sapiens), Q13485 (parent)
chain: MDNMSITNTPTSNDACLSIVHSLMCHRQGGESETFAKRAIESLVKKLKEKKDELDSLITAITTNGAHPSKCVTIQRTLDGRLQVAGRKGFPHVIYARLWRWPDLHKNELKHVKYCQYAFDLKCDSVCVNPYHYERVVSPGIDLSGLTLQSNAPSSMMVKDEYVHDFEGQPSLSTEGHSIQTIQHPPSNRASTETYSTPALLAPSESNATSTANFPNIPVASTSQPASILGGSHSEGLLQIASGPQPGQQQNGFTGQPATYHHNSTTTWTGSRTAPYTPNLPHHQNGHLQHHPPMPPHPGHYWPVHNELAFQPPISNHPAPEYWCSIAYFEMDVQVGETFKVPSSCPIVTVDGYVDPSGGDRFCLGQLSNVHRTEAIERARLHIGKGVQLECKGEGDVWVRCLSDHAVFVQSYYLDREAGRAPGDAVHKIYPSAYIKVFDLRQCHRQMQQQAATAQAAAAAQAAAVAGNIPGPGSVGGIAPAISLSAAAGIGVDDLRRLCILRMSFVKGWGPDYPRQSIKETPCWIEIHLHRALQLLDEVLHTMPIADPQPLD
partner: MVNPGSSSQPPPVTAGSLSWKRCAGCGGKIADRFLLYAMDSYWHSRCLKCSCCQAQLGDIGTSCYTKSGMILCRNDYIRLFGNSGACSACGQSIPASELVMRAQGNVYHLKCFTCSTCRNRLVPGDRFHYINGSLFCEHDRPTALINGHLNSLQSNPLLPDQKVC

The variants in one experiment derive from B1. To be noted: with goga2_human GOLGA2, Q08379.
C230R: the “effect of a mutation on the interaction” value was “with no effect”. As for A72V, the “effect of a mutation on the interaction” value is recorded as “with no effect”.

The variants in another experiment derive from B2. Conditions: with kifa3_human KIFAP3, Q92845.
Sequence of kifa3_human KIFAP3, Q92845 (Q92845 whole entry): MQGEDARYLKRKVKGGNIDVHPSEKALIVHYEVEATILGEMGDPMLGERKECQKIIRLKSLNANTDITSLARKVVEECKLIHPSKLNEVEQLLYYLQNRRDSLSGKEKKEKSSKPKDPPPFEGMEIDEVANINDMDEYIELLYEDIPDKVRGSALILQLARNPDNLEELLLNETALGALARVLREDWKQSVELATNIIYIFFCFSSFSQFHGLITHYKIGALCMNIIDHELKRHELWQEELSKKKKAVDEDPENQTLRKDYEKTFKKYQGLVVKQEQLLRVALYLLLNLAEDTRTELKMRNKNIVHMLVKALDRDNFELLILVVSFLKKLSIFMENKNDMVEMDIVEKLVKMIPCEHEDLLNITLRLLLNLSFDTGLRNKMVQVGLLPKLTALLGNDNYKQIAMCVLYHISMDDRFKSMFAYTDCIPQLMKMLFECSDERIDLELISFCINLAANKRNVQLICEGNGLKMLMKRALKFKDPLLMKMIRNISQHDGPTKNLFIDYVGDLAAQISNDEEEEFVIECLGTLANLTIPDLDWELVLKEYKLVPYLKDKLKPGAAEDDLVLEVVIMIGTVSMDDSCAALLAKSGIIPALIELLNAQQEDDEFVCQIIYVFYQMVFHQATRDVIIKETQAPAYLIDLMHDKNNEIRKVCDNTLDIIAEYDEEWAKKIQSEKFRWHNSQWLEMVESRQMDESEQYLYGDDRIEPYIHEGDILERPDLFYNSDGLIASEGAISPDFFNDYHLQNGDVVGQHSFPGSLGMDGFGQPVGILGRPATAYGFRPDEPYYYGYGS
In the case of V297A, the “effect of a mutation on the interaction” value is “with no effect”.

Another experiment covers variants of B3. Conditions: with lmo4_human LMO4, P61968.
For the variant N13S, the “effect of a mutation on the interaction” value is reported as “with no effect”. Still for that read-out and setting: the same measure for R361C: “with no effect”. The same measure, in the same setting: the same measure for L533R: “with no effect”.
